T1: L234F/L235E/P331S (suppress FcγR binding) Fc fragment, SEQ ID NO: 599 (human, UniProt P01857 104-328 = IgG part)
T1 construct: No homodimer-promoting modification ('-')
T1 chain: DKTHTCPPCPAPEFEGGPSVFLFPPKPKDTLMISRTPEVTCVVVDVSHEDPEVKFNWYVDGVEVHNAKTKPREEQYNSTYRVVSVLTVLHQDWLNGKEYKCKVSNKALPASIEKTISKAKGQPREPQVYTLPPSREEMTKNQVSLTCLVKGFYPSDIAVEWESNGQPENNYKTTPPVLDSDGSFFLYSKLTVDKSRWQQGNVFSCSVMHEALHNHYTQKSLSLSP

B1: IgG2 full-length heavy chain E356K/D399K/K409E (SEQ ID NO: 98) with light chain SEQ ID NO: 61 (antibody)
heavy: QVQLQESGPGLVRPSQTLSLTCTVSGYSITSDHAWSWVRQPPGRGLEWIGYISYSGITTYNPSLKSRVTMLRDTSKNQFSLRLSSVTAADTAVYYCARSLARTTAMDYWGQGSLVTVSSASTKGPSVFPLAPCSRSTSESTAALGCLVKDYFPEPVTVSWNSGALTSGVHTFPAVLQSSGLYSLSSVVTVPSSNFGTQTYTCNVDHKPSNTKVDKTVERKCCVECPPCPAPPVAGPSVFLFPPKPKDTLMISRTPEVTCVVVDVSHEDPEVQFNWYVDGVEVHNAKTKPREEQFNSTFRVVSVLTVVHQDWLNGKEYKCKVSNKGLPAPIEKTISKTKGQPREPQVYTLPPSRKEMTKNQVSLTCLVKGFYPSDIAVEWESNGQPENNYKTTPPMLKSDGSFFLYSELTVDKSRWQQGNVFSCSVMHEALHNHYTQKSLSLSP
light: not shown
B2: IgG2 full-length heavy chain E356K/K392D/D399K/K439E (SEQ ID NO: 104) with light chain SEQ ID NO: 61 (antibody)
heavy: QVQLQESGPGLVRPSQTLSLTCTVSGYSITSDHAWSWVRQPPGRGLEWIGYISYSGITTYNPSLKSRVTMLRDTSKNQFSLRLSSVTAADTAVYYCARSLARTTAMDYWGQGSLVTVSSASTKGPSVFPLAPCSRSTSESTAALGCLVKDYFPEPVTVSWNSGALTSGVHTFPAVLQSSGLYSLSSVVTVPSSNFGTQTYTCNVDHKPSNTKVDKTVERKCCVECPPCPAPPVAGPSVFLFPPKPKDTLMISRTPEVTCVVVDVSHEDPEVQFNWYVDGVEVHNAKTKPREEQFNSTFRVVSVLTVVHQDWLNGKEYKCKVSNKGLPAPIEKTISKTKGQPREPQVYTLPPSRKEMTKNQVSLTCLVKGFYPSDIAVEWESNGQPENNYDTTPPMLKSDGSFFLYSKLTVDKSRWQQGNVFSCSVMHEALHNHYTQESLSLSP
light: not shown
notes: also called Sample No. 238
B3: Full-length IgG2 heavy chain SEQ ID NO: 98 (E356K/D399K/K409E) with light chain SEQ ID NO: 61 (antibody)
heavy: QVQLQESGPGLVRPSQTLSLTCTVSGYSITSDHAWSWVRQPPGRGLEWIGYISYSGITTYNPSLKSRVTMLRDTSKNQFSLRLSSVTAADTAVYYCARSLARTTAMDYWGQGSLVTVSSASTKGPSVFPLAPCSRSTSESTAALGCLVKDYFPEPVTVSWNSGALTSGVHTFPAVLQSSGLYSLSSVVTVPSSNFGTQTYTCNVDHKPSNTKVDKTVERKCCVECPPCPAPPVAGPSVFLFPPKPKDTLMISRTPEVTCVVVDVSHEDPEVQFNWYVDGVEVHNAKTKPREEQFNSTFRVVSVLTVVHQDWLNGKEYKCKVSNKGLPAPIEKTISKTKGQPREPQVYTLPPSRKEMTKNQVSLTCLVKGFYPSDIAVEWESNGQPENNYKTTPPMLKSDGSFFLYSELTVDKSRWQQGNVFSCSVMHEALHNHYTQKSLSLSP
light: not shown
B4: Full-length heavy chain with M428L/N434S (enhance FcRn binding) and Q347R/K360E/D399V/F405T/K409W (SEQ ID NO: 151), with light chain SEQ ID NO: 61 (antibody, human IgG1, kappa)
heavy: QVQLQESGPGLVRPSQTLSLTCTVSGYSITSDHAWSWVRQPPGRGLEWIGYISYSGITTYNPSLKSRVTMLRDTSKNQFSLRLSSVTAADTAVYYCARSLARTTAMDYWGQGSLVTVSSASTKGPSVFPLAPSSKSTSGGTAALGCLVKDYFPEPVTVSWNSGALTSGVHTFPAVLQSSGLYSLSSVVTVPSSSLGTQTYICNVNHKPSNTKVDKRVEPKSCDKTHTCPPCPAPELLGGPSVFLFPPKPKDTLMISRTPEVTCVVVDVSHEDPEVKFNWYVDGVEVHNAKTKPREEQYNSTYRVVSVLTVLHQDWLNGKEYKCKVSNKALPAPIEKTISKAKGQPREPRVYTLPPSREEMTENQVSLTCLVKGFYPSDIAVEWESNGQPENNYKTTPPVLVSDGSFTLYSWLTVDKSRWQQGNVFSCSVLHEALHSHYTQKSLSLSP
light: not shown
B5: Full-length heavy chain with M428L/N434S (enhance FcRn binding) and T366W/L368A/Y407V (SEQ ID NO: 150), with light chain SEQ ID NO: 61 (antibody, human IgG1, kappa)
heavy: QVQLQESGPGLVRPSQTLSLTCTVSGYSITSDHAWSWVRQPPGRGLEWIGYISYSGITTYNPSLKSRVTMLRDTSKNQFSLRLSSVTAADTAVYYCARSLARTTAMDYWGQGSLVTVSSASTKGPSVFPLAPSSKSTSGGTAALGCLVKDYFPEPVTVSWNSGALTSGVHTFPAVLQSSGLYSLSSVVTVPSSSLGTQTYICNVNHKPSNTKVDKRVEPKSCDKTHTCPPCPAPELLGGPSVFLFPPKPKDTLMISRTPEVTCVVVDVSHEDPEVKFNWYVDGVEVHNAKTKPREEQYNSTYRVVSVLTVLHQDWLNGKEYKCKVSNKALPAPIEKTISKAKGQPREPQVYTLPPSREEMTKNQVSLWCAVKGFYPSDIAVEWESNGQPENNYKTTPPVLDSDGSFFLVSKLTVDKSRWQQGNVFSCSVLHEALHSHYTQKSLSLSP
light: not shown
notes: also called Sample No. 330 full-length heavy chain
B6: Full-length heavy chain with M428L/N434S (enhance FcRn binding) and T394W/F405A (SEQ ID NO: 149), with light chain SEQ ID NO: 61 (antibody, human IgG1, kappa)
heavy: QVQLQESGPGLVRPSQTLSLTCTVSGYSITSDHAWSWVRQPPGRGLEWIGYISYSGITTYNPSLKSRVTMLRDTSKNQFSLRLSSVTAADTAVYYCARSLARTTAMDYWGQGSLVTVSSASTKGPSVFPLAPSSKSTSGGTAALGCLVKDYFPEPVTVSWNSGALTSGVHTFPAVLQSSGLYSLSSVVTVPSSSLGTQTYICNVNHKPSNTKVDKRVEPKSCDKTHTCPPCPAPELLGGPSVFLFPPKPKDTLMISRTPEVTCVVVDVSHEDPEVKFNWYVDGVEVHNAKTKPREEQYNSTYRVVSVLTVLHQDWLNGKEYKCKVSNKALPAPIEKTISKAKGQPREPQVYTLPPSREEMTKNQVSLTCLVKGFYPSDIAVEWESNGQPENNYKTWPPVLDSDGSFALYSKLTVDKSRWQQGNVFSCSVLHEALHSHYTQKSLSLSP
light: not shown
B7: Full-length heavy chain SEQ ID NO: 158 (L234F/L235E/P331S; T394W/F405A) with light chain SEQ ID NO: 61 (antibody, human IgG1, kappa)
heavy: QVQLQESGPGLVRPSQTLSLTCTVSGYSITSDHAWSWVRQPPGRGLEWIGYISYSGITTYNPSLKSRVTMLRDTSKNQFSLRLSSVTAADTAVYYCARSLARTTAMDYWGQGSLVTVSSASTKGPSVFPLAPSSKSTSGGTAALGCLVKDYFPEPVTVSWNSGALTSGVHTFPAVLQSSGLYSLSSVVTVPSSSLGTQTYICNVNHKPSNTKVDKRVEPKSCDKTHTCPPCPAPEFEGGPSVFLFPPKPKDTLMISRTPEVTCVVVDVSHEDPEVKFNWYVDGVEVHNAKTKPREEQYNSTYRVVSVLTVLHQDWLNGKEYKCKVSNKALPASIEKTISKAKGQPREPQVYTLPPSREEMTKNQVSLTCLVKGFYPSDIAVEWESNGQPENNYKTWPPVLDSDGSFALYSKLTVDKSRWQQGNVFSCSVMHEALHNHYTQKSLSLSP
light: not shown
notes: copies: 2 + 2
B8: Full-length heavy chain SEQ ID NO: 159 (L234F/L235E/P331S; Q347R/K360E/D399V/F405T/K409W) with light chain SEQ ID NO: 61 (antibody, human IgG1, kappa)
heavy: QVQLQESGPGLVRPSQTLSLTCTVSGYSITSDHAWSWVRQPPGRGLEWIGYISYSGITTYNPSLKSRVTMLRDTSKNQFSLRLSSVTAADTAVYYCARSLARTTAMDYWGQGSLVTVSSASTKGPSVFPLAPSSKSTSGGTAALGCLVKDYFPEPVTVSWNSGALTSGVHTFPAVLQSSGLYSLSSVVTVPSSSLGTQTYICNVNHKPSNTKVDKRVEPKSCDKTHTCPPCPAPEFEGGPSVFLFPPKPKDTLMISRTPEVTCVVVDVSHEDPEVKFNWYVDGVEVHNAKTKPREEQYNSTYRVVSVLTVLHQDWLNGKEYKCKVSNKALPASIEKTISKAKGQPREPRVYTLPPSREEMTENQVSLTCLVKGFYPSDIAVEWESNGQPENNYKTTPPVLVSDGSFTLYSWLTVDKSRWQQGNVFSCSVMHEALHNHYTQKSLSLSP
light: not shown
B9: Full-length heavy chain SEQ ID NO: 160 (L234F/L235E/P331S; E356K/K392D/D399K/K439E) with light chain SEQ ID NO: 61 (antibody, human IgG1, kappa)
heavy: QVQLQESGPGLVRPSQTLSLTCTVSGYSITSDHAWSWVRQPPGRGLEWIGYISYSGITTYNPSLKSRVTMLRDTSKNQFSLRLSSVTAADTAVYYCARSLARTTAMDYWGQGSLVTVSSASTKGPSVFPLAPSSKSTSGGTAALGCLVKDYFPEPVTVSWNSGALTSGVHTFPAVLQSSGLYSLSSVVTVPSSSLGTQTYICNVNHKPSNTKVDKRVEPKSCDKTHTCPPCPAPEFEGGPSVFLFPPKPKDTLMISRTPEVTCVVVDVSHEDPEVKFNWYVDGVEVHNAKTKPREEQYNSTYRVVSVLTVLHQDWLNGKEYKCKVSNKALPASIEKTISKAKGQPREPQVYTLPPSRKEMTKNQVSLTCLVKGFYPSDIAVEWESNGQPENNYDTTPPVLKSDGSFFLYSKLTVDKSRWQQGNVFSCSVMHEALHNHYTQESLSLSP
light: not shown
notes: also called Sample No. 340 full-length heavy chain; copies: 2 + 2

How the values were obtained:
[1] = target: T2, IgG1 Fc fragment without modification (SEQ ID NO: 62) (human, UniProt P01857 104-328 = IgG part); test: co-expression of full-length heavy chain, light chain and Fc fragment in Expi293F, affinity purification, SEC peak area ratio;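 note: purified antibodies analysed by size exclusion chromatography with UV detection at 215 nm, each species given as share of total chromatogram peak area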
T2 construct: Fc fragment below the hinge region, no modification; the associating unit is one Fc chain; also called WT-Fc fragment

[2] = target: T3, IgG2 Fc fragment without modification (SEQ ID NO: 103) (Homo sapiens (Human), UniProt P01859 99-324 = IgG part); test: as above
T3 construct: Fc fragment co-expressed with a full-length heavy chain and the light chain; the associating unit is one Fc chain; also called WT-IgG2 Fc fragment

[3] = target: the molecule itself; test: as above
[4] = target: T4, IgG2 Fc fragment SEQ ID NO: 103, no modification (Homo sapiens (Human), UniProt P01859 99-324 = IgG part); test: SEC area ratio after coexpression of heavy chain, light chain and Fc fragment
T4 construct: Pairs with itself (homo Fc fragment) or with a full-length heavy chain (heteromultimer)

[5] = target: the molecule itself; test: as above
[6] = target: the molecule itself; test: SEC peak area ratio; full-length heavy chain, light chain and Fc fragment coexpressed in Expi293F, affinity purified
[7] = target: T5, Fc fragment SEQ ID NO: 597 (coexpressed with the M428L/N434S heavy chains) (Homo sapiens (Human), UniProt P01857 104-328 = IgG part); test: as above
T5 construct: Fc fragment without CH3 interface modification

[8] = target: the molecule itself; test: SEC peak area ratio; full-length heavy chain, light chain and Fc fragment coexpressed in Expi293F, Protein A purified
[9] = target: T1, L234F/L235E/P331S (suppress FcγR …); test: as above

Binder	Homo full-length heavy chain (%) [6] [%]	Heteromultimer (%) [7] [%]	Homo full-length heavy chain (%) [8] [%]	Heteromultimer (%) [9] [%]	further results
B1	–	–	–	–	Heteromultimer (%) [1]: 5.4%; Heteromultimer (%) [2]: 8.2%
B2	–	–	–	–	Heteromultimer (%) [1]: 0%; Homo full-length heavy chain (%) [3]: 50.9%
B3	–	–	–	–	Heteromultimer (%) [4]: 8.7%; Homo full-length heavy chain (%) [5]: 63.7%
B4	66.9	0	–	–	–
B5	54.8	0	–	–	–
B6	61	0	–	–	–
B7	–	–	61.9	0	–
B8	–	–	64.6	0	–
B9	–	–	61.6	0	–

Source: patent US20260217835A1 (published 2026)
